This is an account of results in publication PMC4823995.

The target in this assay is Mcm6-SuOn (budding yeast) (UniProt Q02724). Put plainly: co-IP.

“Glc7 phosphatase (PP1) (from UniProt P32598 1-312) (enzyme)” displayed a fold enrichment of Glc7 in the immunoprecipitate against Mcm6-ctrl of 2 fold.
